The supplement of paper PMC7877785
± gives the uncertainty stated by the source.

Assay: self-splicing fitness, log relative to wild type (ln ratio); higher = more splicing; Tetrahymena group I intron in knt gene, E. coli kanamycin selection, DiMSum; sequences stand for … in CUCUCU…GGAGGGAAAAGUUAUCAGGCAUGCACCUGGUAGCUAGUCUUUAAACCAAUAGAUUGCAUCGGUUUAAAAGGCAAGACCGUCAAAUUGCGGGAAAGGGGUCAACAGCCGUUCAGUACCAAGUCUCAGGGGAAACUUUGAGAUGGCCUUGCAAAGGGUAUGGUAAUAAGCUGACGGACAUGGUCCUAACCACGCAGCCAAGUCCUAAGUCAACAGAUCUUCUGUUGAUAUGGAUGCAGUUCACAGACUAAAUGUCGGUCGGGGAAGAUGUAUUCUUCUCAUAAGAUAUAGUCGGACCUCUCCUUAAUGGGAGCUAGCGGAUGAAGUGAUGCAACACUGGAGCCGCUGGGAACUAAUUUGUAUGCGAAAGUAUAUUGAUUAGUUUUGGAGUACUCGUGGUCG
Outline: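 Fitness was computed with DiMSum as the error-weighted combination of replicate fold changes, kanamycin versus none, each normalised to wild type. The library randomised all eight intron nucleotides of the P1ex region, with the intron placed in the knt kanamycin-resistance gene on pET-22b(+) in E. coli BL21(DE3). Six replicate transformations were grown overnight at 37°C or 30°C on LB agar with or without 25 μg/mL kanamycin, plus 100 μg/mL carbenicillin, 50 μM IPTG and 0.2% rhamnose. Pooled colonies were amplicon-sequenced on an Illumina HiSeq 2500.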

| Sequence | self-splicing fitness (ln) (30 °C) | self-splicing fitness (ln) (37 °C) |
| --- | --- | --- |
| GUAGAGCAAUAUUACGCAAA | -2.21 ± 0.16 | -1.59 ± 0.17 |
| GUAGAGCAAUAUUACGCAAG | -0.744 ± 0.22 | -1.49 ± 0.27 |
| GUAGAGCAAUAUUACGCACU | -1.24 ± 0.25 | 0.332 ± 0.23 |
| GUAGAGCAAUAUUACGCAGA | – | -1.92 ± 0.32 |
| GUAGAGCAAUAUUACGCCUU | -0.0606 ± 0.13 | 0.0599 ± 0.17 |
| GUAGAGCAAUAUUACGCGGG | -2.65 ± 0.15 | -1.43 ± 0.17 |
| GUAGAGCAAUAUUACGCUCG | -1.59 ± 0.13 | -0.12 ± 0.16 |
| GUAGAGCAAUAUUACGGACA | -0.864 ± 0.17 | -1.72 ± 0.27 |
| GUAGAGCAAUAUUACGGACC | -1.22 ± 0.14 | 0.305 ± 0.2 |
| GUAGAGCAAUAUUACGGAGC | -0.91 ± 0.14 | -0.327 ± 0.2 |
| GUAGAGCAAUAUUACGGAUC | -0.404 ± 0.1 | -0.0325 ± 0.14 |
| GUAGAGCAAUAUUACGGCUA | -0.487 ± 0.11 | 0.641 ± 0.16 |
| GUAGAGCAAUAUUACGGUCC | -1.01 ± 0.17 | -0.565 ± 0.28 |
| GUAGAGCAAUAUUACGGUGG | -3.39 ± 0.45 | -0.894 ± 0.23 |
| GUAGAGCAAUAUUACGUCGC | -0.635 ± 0.15 | -0.21 ± 0.18 |
| GUAGAGCAAUAUUACGUGCU | – | -1.29 ± 0.39 |
| GUAGAGCAAUAUUACGUGGC | -1.52 ± 0.17 | -1.29 ± 0.27 |
| GUAUAGCAAUAUUACGAACU | -1.75 ± 0.23 | 0.477 ± 0.24 |
| GUAUAGCAAUAUUACGACCA | -0.996 ± 0.17 | -0.193 ± 0.17 |
| GUAUAGCAAUAUUACGCGCU | -2.22 ± 0.16 | -0.818 ± 0.16 |
| GUAUAGCAAUAUUACGCUGU | -2.81 ± 0.26 | -2.48 ± 0.3 |
| GUAUAGCAAUAUUACGGACC | -1.89 ± 0.5 | -2.56 ± 0.3 |
| GUAUAGCAAUAUUACGGCCG | -2.76 ± 0.21 | -1.09 ± 0.17 |
| GUAUAGCAAUAUUACGGGAU | -3.5 ± 0.29 | -0.308 ± 0.11 |
| GUAUAGCAAUAUUACGGGUA | -2.56 ± 0.27 | -1.28 ± 0.19 |
| GUAUAGCAAUAUUACGGUAU | -2.73 ± 0.18 | -2.26 ± 0.19 |

| Sequence | self-splicing fitness (ln) (30 °C) | self-splicing fitness (ln) (37 °C) |
| --- | --- | --- |
| GUAUAGCAAUAUUACGGUUG | -3.77 ± 0.3 | -1.35 ± 0.3 |
| GUAUAGCAAUAUUACGUAGA | – | -2.07 ± 0.32 |
| GUAUAGCAAUAUUACGUUCA | -1.06 ± 0.2 | -0.424 ± 0.23 |
| GUCAAGCAAUAUUACGAACG | -2.06 ± 0.15 | -1.27 ± 0.15 |
| GUCAAGCAAUAUUACGAGGU | -2.65 ± 0.26 | -3.03 ± 0.37 |
| GUCAAGCAAUAUUACGAGUG | -3.56 ± 0.17 | -1.69 ± 0.16 |
| GUCAAGCAAUAUUACGAUCA | -1.76 ± 0.23 | -0.845 ± 0.15 |
| GUCAAGCAAUAUUACGCGAU | -4.38 ± 0.28 | -3.64 ± 0.39 |
| GUCAAGCAAUAUUACGCGUC | -2.99 ± 0.15 | -2.22 ± 0.19 |
| GUCAAGCAAUAUUACGCUCG | -2.95 ± 0.14 | -1.18 ± 0.12 |
| GUCAAGCAAUAUUACGCUGU | -3.26 ± 0.13 | -2.42 ± 0.19 |
| GUCAAGCAAUAUUACGGAUA | -2.47 ± 0.19 | -1.27 ± 0.17 |
| GUCAAGCAAUAUUACGGCCG | -2.31 ± 0.4 | – |
| GUCAAGCAAUAUUACGGCGG | -4.75 ± 0.32 | -2.83 ± 0.24 |
| GUCAAGCAAUAUUACGGCGU | -1.04 ± 0.083 | -0.0377 ± 0.1 |
| GUCAAGCAAUAUUACGGGCA | -3.61 ± 0.41 | -2.97 ± 0.3 |
| GUCAAGCAAUAUUACGGGCC | -3.75 ± 0.27 | -2.77 ± 0.31 |
| GUCAAGCAAUAUUACGGGGU | -5.42 ± 0.25 | -4.15 ± 0.19 |
| GUCAAGCAAUAUUACGGUAG | -3.35 ± 0.18 | -4.66 ± 0.38 |
| GUCAAGCAAUAUUACGGUUU | -2.48 ± 0.075 | -1.44 ± 0.077 |
| GUCAAGCAAUAUUACGUAUU | -2.98 ± 0.12 | -1.84 ± 0.1 |
| GUCAAGCAAUAUUACGUCCA | -2.58 ± 0.25 | -0.387 ± 0.12 |
| GUCAAGCAAUAUUACGUCCG | – | -3.83 ± 0.39 |
| GUCAAGCAAUAUUACGUGUG | -2.69 ± 0.068 | -1.61 ± 0.071 |
| GUCCAGCAAUAUUACGACGU | 0.172 ± 0.091 | 0.365 ± 0.085 |
| GUCCAGCAAUAUUACGAUAU | -0.337 ± 0.056 | 0.114 ± 0.065 |

| Sequence | self-splicing fitness (ln) (30 °C) | self-splicing fitness (ln) (37 °C) |
| --- | --- | --- |
| GUCCAGCAAUAUUACGAUCA | -0.611 ± 0.12 | -0.93 ± 0.13 |
| GUCCAGCAAUAUUACGCAAG | -1.32 ± 0.12 | -1.28 ± 0.14 |
| GUCCAGCAAUAUUACGCAGC | -0.998 ± 0.17 | 0.198 ± 0.14 |
| GUCCAGCAAUAUUACGCCAA | -2.63 ± 0.18 | -2.72 ± 0.16 |
| GUCCAGCAAUAUUACGCCAC | -2.51 ± 0.44 | – |
| GUCCAGCAAUAUUACGCCUU | -0.571 ± 0.1 | -0.309 ± 0.11 |
| GUCCAGCAAUAUUACGCUCC | -0.889 ± 0.17 | -0.563 ± 0.2 |
| GUCCAGCAAUAUUACGCUUA | -0.882 ± 0.067 | -0.314 ± 0.07 |
| GUCCAGCAAUAUUACGGAGG | -1.76 ± 0.06 | -1.17 ± 0.078 |
| GUCCAGCAAUAUUACGGCCG | -3.67 ± 0.24 | -2.69 ± 0.19 |
| GUCCAGCAAUAUUACGGCGA | -1.32 ± 0.12 | -0.997 ± 0.14 |
| GUCCAGCAAUAUUACGGCUG | -3.93 ± 0.31 | -3.61 ± 0.39 |
| GUCCAGCAAUAUUACGGUAC | -2.97 ± 0.18 | -1.92 ± 0.17 |
| GUCCAGCAAUAUUACGGUCG | -0.533 ± 0.071 | -0.131 ± 0.097 |
| GUCCAGCAAUAUUACGGUGA | -0.608 ± 0.051 | -0.131 ± 0.071 |
| GUCCAGCAAUAUUACGGUGG | -3.36 ± 0.15 | -2.71 ± 0.12 |
| GUCCAGCAAUAUUACGUACA | -1.73 ± 0.1 | -0.367 ± 0.1 |
| GUCCAGCAAUAUUACGUCCG | -4.42 ± 0.29 | -0.283 ± 0.22 |
| GUCCAGCAAUAUUACGUCGC | -0.994 ± 0.096 | 0.0208 ± 0.12 |
| GUCCAGCAAUAUUACGUCGG | -3.83 ± 0.41 | -1.39 ± 0.2 |
| GUCCAGCAAUAUUACGUCUG | -3.8 ± 0.47 | -2.47 ± 0.33 |
| GUCCAGCAAUAUUACGUGAC | -1.23 ± 0.13 | -1.93 ± 0.16 |
| GUCCAGCAAUAUUACGUGAG | 0.151 ± 0.044 | 0.375 ± 0.065 |
| GUCCAGCAAUAUUACGUGGG | -3.68 ± 0.13 | -2.36 ± 0.14 |
| GUCCAGCAAUAUUACGUUAA | -1.64 ± 0.1 | -0.751 ± 0.079 |
